For one molecule, editing efficiency results are on record in patent US20200149021, “SYSTEM AND METHOD FOR GENOME EDITING” (INSTITUTE OF ZOOLOGY, CHINESE ACADEMY OF SCIENCES, published 2020).

This data set has as its target T1, ArCpf1 (Agathobacter rectalis).
T1 chain: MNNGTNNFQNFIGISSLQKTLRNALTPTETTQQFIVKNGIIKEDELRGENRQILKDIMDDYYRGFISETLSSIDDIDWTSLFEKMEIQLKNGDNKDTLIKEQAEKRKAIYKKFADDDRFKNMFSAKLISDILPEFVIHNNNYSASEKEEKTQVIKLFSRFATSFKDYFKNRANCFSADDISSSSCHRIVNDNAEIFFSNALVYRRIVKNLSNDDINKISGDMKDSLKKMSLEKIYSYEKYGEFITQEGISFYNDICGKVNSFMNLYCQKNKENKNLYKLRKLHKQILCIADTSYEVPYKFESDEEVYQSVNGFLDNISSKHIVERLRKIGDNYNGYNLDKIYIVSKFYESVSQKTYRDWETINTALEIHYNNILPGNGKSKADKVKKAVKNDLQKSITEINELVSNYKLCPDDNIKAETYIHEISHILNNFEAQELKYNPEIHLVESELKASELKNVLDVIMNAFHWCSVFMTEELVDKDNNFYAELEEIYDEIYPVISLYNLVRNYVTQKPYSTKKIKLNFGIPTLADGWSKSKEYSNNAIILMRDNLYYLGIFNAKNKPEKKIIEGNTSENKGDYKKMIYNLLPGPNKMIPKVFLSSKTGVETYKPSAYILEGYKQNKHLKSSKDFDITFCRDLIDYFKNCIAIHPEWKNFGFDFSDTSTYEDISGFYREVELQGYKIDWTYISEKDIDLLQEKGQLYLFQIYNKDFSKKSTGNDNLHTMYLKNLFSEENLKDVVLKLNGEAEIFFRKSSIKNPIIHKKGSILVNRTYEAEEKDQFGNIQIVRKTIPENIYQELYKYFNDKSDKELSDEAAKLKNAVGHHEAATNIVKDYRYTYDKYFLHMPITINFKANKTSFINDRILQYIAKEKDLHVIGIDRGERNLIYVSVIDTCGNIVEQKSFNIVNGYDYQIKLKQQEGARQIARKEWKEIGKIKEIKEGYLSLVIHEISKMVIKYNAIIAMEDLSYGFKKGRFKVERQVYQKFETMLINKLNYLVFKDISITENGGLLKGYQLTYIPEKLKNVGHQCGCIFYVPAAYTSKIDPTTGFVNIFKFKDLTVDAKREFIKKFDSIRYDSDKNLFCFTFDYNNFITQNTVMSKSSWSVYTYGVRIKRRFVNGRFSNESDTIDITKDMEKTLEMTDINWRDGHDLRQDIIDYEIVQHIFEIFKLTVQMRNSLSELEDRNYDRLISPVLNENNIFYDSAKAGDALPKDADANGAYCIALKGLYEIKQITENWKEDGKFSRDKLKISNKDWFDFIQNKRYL
Description: cell_activity; PAM TTTC; T7EI. The following applies: tags: NLS, HA (2A-eGFP vector). The method, then: GFP-positive cells were sorted by FACS, lysed with Buffer L+ 1/100V Protease K (Biotool) at 55° C. for 30 min, inactivated at 95° C. for 5 min, and directly used for PCR detection. Appropriate primers were designed near the Cpf1 targeting site, and the amplified product was purified using DNA Clean & Concentrator™-5 kit (ZYMO Research). 200 ng of purified PCR product was added into 1 uL of NEBuffer2 (NEB) and diluted to 10 uL with ddH₂O. Then, heterodimers were formed by re-annealing according to the previously reported method (Li, W., et al., Simultaneous generation and germline transmission of multiple gene mutations in rat using CRISPR-Cas systems. Nat Biotechnol, 2013. 31(8): p. 684-6). The reannealed product was added with 0.3 uL of T7EI endnucelease and 1/10 V NEBuffer2 (NEB), and digested at 37° C. for 1 h 30 min. Genotype analysis was performed by 3% TAE-Gel electrophoresis. Indels were calculated according to the method reported in the previous article (Cong, L., et al., Multiplex genome engineering using CRISPR/Cas systems. Science, 2013. 339(6121): p. 819-23).
The cells were transfected with Cpf1, crRNA31, and crRNA2 plasmids, and it was confirmed by PCR and T7EI analysis that crRNA31 can increase the editing efficiency of five Cpf1s of ArCpf1, BsCpf1, HkCpf1, PrCpf1, and PxCpf1 at the site MeCP2-4 by two folds (FIG. 13B).

B1: crRNA31 MeCP2 site 4 ; Mouse MeCP2 site 4 (ssRNA ; dsDNA)
RNA: AUUUCUACUAUGGUAGAUGUGUCCAACCUUCAGGCAAGGUG
DNA 1: TTTCGTGTCCAACCTTCAGGCAAGGTG
DNA 2: CACCTTGCCTGAAGGTTGGACACGAAA
B1 displayed an editing efficiency of around 2 fold vs crRNA2.
